Measurements from the supplement of paper PMC9732359.
± gives the uncertainty stated by the source.

Assay: protein stability index of a GFP-peptide fusion (yeast GPS) (PSI 1-4); higher = more stable; sorted into four equal gates, so the index is relative within each strain
Summary of the method: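 The protein stability index of a peptide was calculated by multiplying its read frequency in each gate by that gate's number and adding the products. The peptides were tiled 17-residue stretches of yeast proteins, fused downstream of GFP on a Cherry-expressing plasmid and carried in yeast as a pooled library. Mid-log cultures in leucine-free medium were sorted into four equal gates by GFP/Cherry ratio, and each gate's plasmids were PCR-amplified and Illumina-sequenced.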

Sequence	protein stability index (doa10∆)	protein stability index (pdr5∆)	protein stability index (san1∆)	protein stability index (ubr1∆)
IGSQRGRRLSMLASQAN [DSN1]	1.75 ± 0.057	2.47 ± 0.068	1.88 ± 0.096	2.18 ± 0.047
TDLNQDSAAIIAATGLN [GRR1]	1.62 ± 0.17	1.32 ± 0.1	1.43 ± 0.22	1.55 ± 0.097
QIQLAESELSLLEETQA [SMC4]	2.69 ± 0.066	3.25 ± 0.063	2.71 ± 0.095	3.05 ± 0.052
LDGDRADKRGVLTGGYL [SMC3]	2.93 ± 0.2	3.03 ± 0.23	–	3.07 ± 0.2
HLSSKTGLHFGRLSLRS [QCR10]	3.24 ± 0.2	3.06 ± 0.11	3.06 ± 0.11	3.14 ± 0.12
ALTKFEASQVTEKQRKK [RPL35A]	3.2 ± 0.27	2.57 ± 0.1	3.1 ± 0.064	3.17 ± 0.061
SGSTEKAFKICEAAVEI [SIR3]	2.97 ± 0.11	2.71 ± 0.11	2.84 ± 0.15	3.18 ± 0.16
NMVSLRGRNDTLERVHL [GRR1]	2.85 ± 0.086	3.22 ± 0.14	2.39 ± 0.17	2.73 ± 0.096
WVNMLLISSSGPIKTPV [FAS2]	1.87 ± 0.059	1.32 ± 0.051	1.23 ± 0.082	1.53 ± 0.047
SYFSPINSSNEALVQAF [YCG1]	2.33 ± 0.063	2.19 ± 0.061	2.69 ± 0.072	2.25 ± 0.042
GSTGGLGASFGQQQQQS [YGL172W/NUP49]	2.76 ± 0.2	2.81 ± 0.076	2.12 ± 0.12	3.1 ± 0.1
EFKSIEIEMKNKLEKLN [SMC4]	1.68 ± 0.058	1.51 ± 0.075	1.42 ± 0.19	1.37 ± 0.046
DDIVSHQGTPLGSHSSS [REC8]	3.2 ± 0.15	3.37 ± 0.12	3.04 ± 0.16	3.3 ± 0.095
LFGSSNNNNNNNNSNNI [YGL172W/NUP49]	2.93 ± 0.077	2.33 ± 0.056	2.53 ± 0.086	2.6 ± 0.097
KTDEVIILGTNLYDGAE [BRR2]	2.98 ± 0.068	3.12 ± 0.055	3.06 ± 0.042	2.9 ± 0.043
KWDDLNEQLTLLSKKHG [RPN5]	2.67 ± 0.099	2.92 ± 0.083	2.58 ± 0.063	2.94 ± 0.055
DKGAVGPNNFIWPAEDA [MED4]	3.51 ± 0.25	3.43 ± 0.24	–	3.23 ± 0.15
PDAKIQVRRDIPSAAFN [YMR129W/POM152]	2.17 ± 0.061	1.89 ± 0.098	1.63 ± 0.11	3.24 ± 0.088
ENDIIKLSDSKTSNIES [BRR2]	–	2.48 ± 0.18	2.77 ± 0.19	3.09 ± 0.15
EWKSEFVVPTFGQDVSP [SNM1]	2.25 ± 0.052	2.29 ± 0.055	3.04 ± 0.063	2.24 ± 0.05
EKGSWEQLSPQDVLQML [BRR2]	3.05 ± 0.12	3.27 ± 0.15	3.42 ± 0.12	3.03 ± 0.088
MKVLEERNAFLSDYEVL [RPC17]	–	2.77 ± 0.27	–	–
MFANMKVLGVKDMSPIL [LRP1]	1.84 ± 0.069	1.52 ± 0.046	1.41 ± 0.072	1.46 ± 0.047
ITRLCQTLGLESFTEEL [MED1]	2.54 ± 0.054	2.81 ± 0.063	1.59 ± 0.16	2.51 ± 0.056
NSKPEKSSDSNDSNPSF [YLR335W/NUP2]	2.47 ± 0.056	2.62 ± 0.064	2.25 ± 0.061	2.76 ± 0.036
KDVKAWAGKRLWDQDIA [COR1]	3.52 ± 0.11	3.4 ± 0.11	3.27 ± 0.061	3.2 ± 0.091

Sequence	protein stability index (doa10∆)	protein stability index (pdr5∆)	protein stability index (san1∆)	protein stability index (ubr1∆)
VARTFWASKYGQEYPRI [BRR2]	2.42 ± 0.15	2.38 ± 0.17	2.32 ± 0.17	3.06 ± 0.094
KGVLLYGPPGTGKTLLA [RPT4]	2.51 ± 0.045	2.58 ± 0.041	2.57 ± 0.048	2.29 ± 0.035
QRLVTPQRLQRKRHQRA [RPS6A]	2.64 ± 0.059	3.13 ± 0.05	3.23 ± 0.039	3.09 ± 0.035
PSASLKLHHDLKLCLGD [YMR129W/POM152]	3.06 ± 0.073	3.09 ± 0.07	2.92 ± 0.083	3.03 ± 0.054
FLSSFDDVLQTIITDCA [YJL039C/NUP192]	2.43 ± 0.045	2.07 ± 0.049	2.03 ± 0.062	2.38 ± 0.034
RSTDEFNGAQLKAVTVE [RPT5]	2.86 ± 0.29	3.71 ± 0.24	–	2.06 ± 0.19
SLGSSSTTASGTTATGT [YGR119C/NUP57]	3.08 ± 0.072	3.31 ± 0.076	3.08 ± 0.067	3.18 ± 0.067
NIVNDFTPEEEAAIRRE [SKP1]	2.28 ± 0.14	2.73 ± 0.079	3.08 ± 0.13	3.02 ± 0.086
MSLEPTQTVSGTPPMLH [DSN1]	2.78 ± 0.14	3 ± 0.12	2.92 ± 0.22	3 ± 0.1
AAELLDKRIVISIDSWP [DIS3]	1.61 ± 0.062	1.87 ± 0.09	1.55 ± 0.14	1.95 ± 0.072
LLTLIVREYEQPDANKK [ISW2]	–	–	3.09 ± 0.2	–
TLIIDQVRKDLGNVIVP [NUT1]	3.07 ± 0.29	–	3.12 ± 0.21	2.89 ± 0.14
DMLTWVDSNLPDDEKFT [RPC40]	2.92 ± 0.074	3.14 ± 0.063	2.56 ± 0.16	3.26 ± 0.074
ERAARVAAKIAALAGQQ [RPL5]	2.71 ± 0.13	3.03 ± 0.17	2.57 ± 0.15	3.11 ± 0.079
WGIPLIKELRSKGYPIQ [FAS1]	2.38 ± 0.16	2.75 ± 0.091	1.69 ± 0.2	1.85 ± 0.071
EEKEESNLAATKSMVKI [RPN11]	3.43 ± 0.12	3.41 ± 0.11	3.34 ± 0.059	3.35 ± 0.098
KIIPKDISATQLPKQLW [ITC1]	2.22 ± 0.11	2.43 ± 0.14	2.45 ± 0.12	2.32 ± 0.13
DSLNDDLNKENKLLRRK [YIL149C/MLP2]	2.98 ± 0.21	3.24 ± 0.18	3.01 ± 0.15	3.31 ± 0.065
PEESKPINLQNGEEDEV [YLR335W/NUP2]	2.9 ± 0.075	2.92 ± 0.077	3.1 ± 0.046	3.1 ± 0.062
SKVSKQQAKGAFQKVAA [RPL24B]	2.45 ± 0.042	2.97 ± 0.043	2.78 ± 0.036	2.65 ± 0.036
IKVPTYIRKLISSGLLY [SRB8]	1.38 ± 0.048	1.27 ± 0.07	1.38 ± 0.085	1.2 ± 0.067
TGKERSKKRKLNSLTNL [SNM1]	2.41 ± 0.11	3.04 ± 0.093	2.89 ± 0.075	2.67 ± 0.13
GVDAMSVDDLKKLNKNK [RPL1A]	3.33 ± 0.078	3.14 ± 0.12	3.25 ± 0.058	3.73 ± 0.11
AQLDGRIGVLQARMMQQ [NSL1]	2.21 ± 0.055	2.46 ± 0.043	2.46 ± 0.056	2.61 ± 0.048
FLRPTYPDLCSIYDKWT [RPN1]	2.83 ± 0.064	2.82 ± 0.059	2.35 ± 0.069	2.47 ± 0.046
